The values that follow come from publication PMC3307221 (Analytical Chemistry, 2012).

This assay has as its target protective antigen of anthrax (Bacillus anthracis, strain , UniProt P13423). The experiment in a line: SPR. (SPR reads the build-up and loss of mass on a sensor chip optically.)

Chain of protective antigen of anthrax (P13423 whole entry, looked up): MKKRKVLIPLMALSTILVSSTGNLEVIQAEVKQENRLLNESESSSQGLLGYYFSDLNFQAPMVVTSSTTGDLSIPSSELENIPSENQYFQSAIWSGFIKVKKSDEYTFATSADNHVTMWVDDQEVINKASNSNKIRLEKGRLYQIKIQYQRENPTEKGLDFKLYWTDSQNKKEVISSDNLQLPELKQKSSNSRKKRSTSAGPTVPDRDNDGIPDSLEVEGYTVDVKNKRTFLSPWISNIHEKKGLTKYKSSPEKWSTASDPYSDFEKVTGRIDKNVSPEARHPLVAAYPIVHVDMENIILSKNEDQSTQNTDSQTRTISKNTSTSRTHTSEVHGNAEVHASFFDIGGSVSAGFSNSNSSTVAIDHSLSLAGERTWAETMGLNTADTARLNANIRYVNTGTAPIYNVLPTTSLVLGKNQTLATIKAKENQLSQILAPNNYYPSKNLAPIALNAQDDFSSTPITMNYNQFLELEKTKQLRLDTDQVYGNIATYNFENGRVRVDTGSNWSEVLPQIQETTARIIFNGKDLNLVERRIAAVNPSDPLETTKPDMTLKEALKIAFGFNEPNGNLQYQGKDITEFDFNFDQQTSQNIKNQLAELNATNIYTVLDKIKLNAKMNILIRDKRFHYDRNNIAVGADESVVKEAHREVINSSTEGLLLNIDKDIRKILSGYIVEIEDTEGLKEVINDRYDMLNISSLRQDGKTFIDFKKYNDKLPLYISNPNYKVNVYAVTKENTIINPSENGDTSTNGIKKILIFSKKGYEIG

B1: M18 scFv (scFv, V domains shown)
VH: EVQLQQSGPELVKPGASVKISCKDSGYAFNSSWMNWVKQRPGQGLEWIGRIYPGDGDSNYNGKFEGKAILTADKSSSTAYMQLSSLTSVDSAVYFCARSGLLRYAMDYWGQGTSVTVSS
VL: DIQMTQTTSSLSASLGDRVTVSCRASQDIRNYLNWYQQKPDGTVKFLIYYTSRLQPGVPSRFSGSGSGTDYSLTINNLEQEDIGTYFCQQGNTPPWTFGGGTKLEIK
On to B1, for which the koff was determined as 0.00011 s⁻¹ and the kon was 597000 M⁻¹ s⁻¹.

For orientation: koff means the rate constant with which the complex falls apart. The low end stands for slow dissociation, the high end for fast dissociation. One may read the kon as the second-order rate constant of association. Low values mean slow association, high ones fast association.
